doi:10.64898/2025.12.08.692793 (bioRxiv, 2025)

Target: metabotropic glutamate receptor 2 (mGlu2) (human, UniProt Q14416 19-872)
Assay: cryo-EM structure

Sequence of metabotropic glutamate receptor 2 (mGlu2) (Q14416 19-872): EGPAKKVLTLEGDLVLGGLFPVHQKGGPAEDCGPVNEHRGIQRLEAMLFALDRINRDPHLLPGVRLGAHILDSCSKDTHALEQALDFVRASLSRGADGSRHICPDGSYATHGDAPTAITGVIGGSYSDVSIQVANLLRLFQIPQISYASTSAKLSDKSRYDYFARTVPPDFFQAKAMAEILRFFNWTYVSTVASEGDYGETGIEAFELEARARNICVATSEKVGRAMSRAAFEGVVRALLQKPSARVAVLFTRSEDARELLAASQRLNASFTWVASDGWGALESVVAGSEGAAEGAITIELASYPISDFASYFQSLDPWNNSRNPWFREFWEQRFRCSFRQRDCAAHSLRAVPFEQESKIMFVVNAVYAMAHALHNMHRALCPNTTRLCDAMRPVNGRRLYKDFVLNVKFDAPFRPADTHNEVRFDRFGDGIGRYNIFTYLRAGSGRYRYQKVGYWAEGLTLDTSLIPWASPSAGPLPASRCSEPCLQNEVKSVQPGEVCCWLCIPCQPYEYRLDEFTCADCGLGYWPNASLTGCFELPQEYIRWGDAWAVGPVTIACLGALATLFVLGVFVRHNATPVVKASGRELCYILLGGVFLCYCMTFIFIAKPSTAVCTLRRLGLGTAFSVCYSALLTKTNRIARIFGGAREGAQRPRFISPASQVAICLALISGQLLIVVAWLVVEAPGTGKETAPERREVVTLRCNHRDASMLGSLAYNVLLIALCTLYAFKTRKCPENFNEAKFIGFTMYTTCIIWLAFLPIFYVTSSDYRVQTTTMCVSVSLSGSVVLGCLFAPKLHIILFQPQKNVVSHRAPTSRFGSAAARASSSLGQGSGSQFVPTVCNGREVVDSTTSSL

- binding result: binds
Binder: LPQEYIRW [FTM peptide (Force Transduction Motif, mGlu2 residues 556-563)]
